According to patent US20210261671A1 (HARPOON THERAPEUTICS, published 2021):

B1: FLL84 (VHH)
VHH: QVQLQESGGGLVQAGGSLMVSCAASGGTFSSYATGWFRQVPGKEREFIAGISRSGGRTYYAESVKGRFTISRDNAKNTVYLQMNTLKPDDTAVYYCAAARYFTTSVVYTSGDDYDYWGQGTQVTVSS
notes: llama anti-FLT3 variable domain; E. coli periplasmic extract
B2: FLL41 (VHH)
VHH: QVQLQESGGGLVQLGDSLMVSCAASGGTFSSYATGWFRQVPGREREFIAGISRSGGRTYYAESVKGRFTISRDNAKNTVYLQMNTLKPDDTAVYYCAAARYFTTSVVYTSGDDYDYWGQGTQVTVSS
notes: as for B1
B3: FLL71 (VHH)
VHH: QVQLQESGGGLVQVGGSLMVSCAASGGTFSSYATGWFRQVPGKEREFIAGISRNSGRTYYAESVKGRFTISRDNAKNTVYLQMNTLKPDDTAVYYCAAARYFTRDAVYTSGDDYDYWGQGTQVTVSS
notes: as for B1
B4: FLL8 (VHH)
VHH: QVQLQESGGGLVQVGGSLMVSCAASGGTFSSYATGWFRQVPGKEREFIAGISRNSGRTYYAESVKGRFTISRDNAKNTVYLQMNTLKPDDTAVYYCAAARYFTRDVVYTSGDDYDYWGQGTQVTVSS
notes: as for B1
B5: FLL102 (VHH)
VHH: QVQLQESGGGLVQAGGSLMVSCAASGGTWSSYATGWFRQVPGKERKLIAGISRSGGRTYYAESVKGRFTISRDNAKNTVYLQMNTLKPDDTAVYYCAAARYFTSSVVYTSGNDYDYWGQGTQVTVSS
notes: as for B1
B6: FLL92 (VHH)
VHH: QVQLQESGGGLVQAGGSLMVSCAASGGTWSSYATGWFRQVPGKERELIAGISRSGGRTYYAESVKGRFTISRDNAKNTVYLQMNTLKSDDTAVYYCAAARYFTSSVVYTSGNDYDYWGQGTQVTVSS
notes: as for B1
B7: FLL67 (VHH)
VHH: QVQLQESGGGLVQLGDSLMVSCAASGGTFSSYATGWFRQVPGKEREFIAGISRSGGRTYYAESVKGRFTISRDNAKNTVYLQMNTLKPDDTAVYYCAAARYFTTSVVYTSGDDYDYWGQGTQVTVSS
notes: as for B1
B8: FLL57 (VHH)
VHH: QVQLQESGGGLVQAGGSLRLSCAASGSTFSKNYIDWYRQAPGKQREWVAQITSGGNTHYEPSLKGRFTISRDNAKNTAYLQMNSLKPEDTAVYYCRILDYWGQGTQVTVSS
notes: as for B1
B9: FLL158 (VHH)
VHH: QVQLQESGGGLVQPGGSLRLSCAASGSTFGRNYIDWYRQAPGKQREWVAQITSGGNTHYEPSLKGRFTISRDNAKNTAYLQMNSLKPEDTAVYYCRILDYWGQGTQVTVSS
notes: as for B1
B10: FLL62 (VHH)
VHH: QVQLQESGGGLVQAGGSLRLSCAASGSTSSRNYIDWYRQAPGKQREWVAQITSGGNTHYEPSLKGRFTISRDNAKNTAYLQMNSLKPEDTAVYYCRILDYWGQGTQVTVSS
notes: as for B1
B11: FLL79 (VHH)
VHH: QVQLQESGGGLVQAGGSLRLSCSASGSTFSRNYIDWYRQAPGKQREWVAQITSGGNTHYEPSLKGRFTISRDNAKNTAYLQMNSLKPEDTAVYYCRILDYWGQGTQVTVSS
notes: as for B1
B12: FLL86 (VHH)
VHH: QVQLQESGGGLVQPGDPLRLSCAASGSTFSRNYIDWYRQAPGKQREWVAQITSGGNTHYEPSLKGRFTISRDNAKNTAYLQMNSLKPEDTAVYYCRILDYWGQGTQVTVSS
notes: as for B1
B13: FLL553 (VHH)
VHH: QVQLQESGGGLVQAGGSLRLSCAVSGRTFSGFGTGWFRQAPGKEREFVAAISWSGGTTHYADSVKGRFTISRDNAKNTVNLVYLQMNSLRPEDTAVYYCAGQVARAYDSNWYSRGDYWGQGTQVTVSS
notes: as for B1
B14: FLL53 (VHH)
VHH: QVQLQESGGGLVQAGDSLRLSCAVSGRTFSGFGTGWFRQAPGKEREFVAAVSQSGGTTHYADSVKGRFTISRDNAKNTETLVYLQMNSLKPEDTAVYYCAGQVARAYDSSWYARGDYWGQGTQVTVSS
notes: as for B1
B15: FLL75 (VHH)
VHH: QVQLQESGGGLVQAGGSLRLSCAVSGRTFSGFGTGWFRQAPGKEREFVAAISWSGGTTHYADSVKGRFTISRDNAKNTVNLVYLQMNDLRPEDTAVYYCAGQVARAYDSNWYSRGDYWGQGTQVTVSS
notes: as for B1
B16: FLL40 (VHH)
VHH: QVQLQESGGGLVQAGGSLRLSCAVSGRTFSGFGTGWFRQAPGKEREFVAAISWSGGTTHYADSVKGRFTISRDNAKNTVSLVYLQMNSLKPDDTAVYYCAGQVARAYDSSWYSRGDYLGQGTQVTVSS
notes: as for B1
B17: FLL154 (VHH)
VHH: QVQLQESGGGLVQAGGSLRLSCAVSGRTFSGFGTGWFRQAPGKEREFVAAISWSGGRTHYADSVKGRFTISRDNAKNTVYLQMNSLKPEDTAVYYCAGQVARAYDGNWYSRGDYWGQGTQVTVSS
notes: as for B1
B18: FLL188 (VHH)
VHH: QVQLQESGGGLVQAGGSLGLSCAVSGRTFSGFGTGWFRQPPEKEREFVAAISWDGGRTHYADSVKGRFTISRDNAKNTVFLQMNSLKPEDTAVYYCAAQVARAYDSRWYSGGDYWGQGTQVTVSS
notes: as for B1
B19: FLL83 (VHH)
VHH: QVQLQESGGGLVQAGGSLRLSCAVSGRTFSGFGTGWFRQAPGKEREFVAAISWSGGTTHYADSVKGRFTISRDNAENTVYLEMNSLKPEDTAVYICAGQVSRAYDSNWYSRDDYWGQGTQVTVSS
notes: as for B1
B20: FLL143 (VHH)
VHH: QVQLQESGGGLVQAGGSLRLSCAVSGRTFSGFGTGWFRQAPGKEREFVAAISWVGGRTHYADSVKGRFTISRDNAKNTVYLQMNSLKPEDTAVYYCAAQVARAYDGNWYSGGDYWGQGTQVTVSS
notes: as for B1
B21: FLL112 (VHH)
VHH: QVQLQESGGGLVQAGGSLRLSCAVSGRTFSGFGTGWFRQAPGKEREFVAAISWAGGRTHYEDSVKGRFTIHRDNAKNTVYLQMNSLKPEDTAVYYCAAQVSRAYDGIWYSGGDYWGQGTQVTVSS
notes: as for B1
B22: FLL94 (VHH)
VHH: QVQLQESGGGLVQAGGSLRLSCAVSGRTFSGFGTGWFRQAPEKEREFVAAISWDGGRTHYADSVKGRFTISRDNAKNTVYLQMNSLKPEDTAIYYCAGQVARAYDTRWYSRGDYWGQGTQVTVSS
notes: as for B1
B23: FLL99 (VHH)
VHH: QVQLQESGGGLVQAGGSLRLSCAVSGRTFSGFGTGWFRQAPGKEREFVAAISWDGGRTHYADFVKGRFTISRDNAKNTVYLQMNSLKPEDTAVYYCAAQVARAYDSRWYSGGDYWGQGTQVTVSS
notes: as for B1
B24: FLL6 (VHH)
VHH: QVQLQESGGGLVQAGGSLRLSCAVSGRTFSGFGTGWFRQAPGKEREFVAAISWDGGRTHYADSVKGRFTISRDNAANTVYLQMNSLKPEDTAVYYCAGQVSRAYDSMWYGRDDYWGQGTQVTVSS
notes: as for B1
B25: FLL142 (VHH)
VHH: QVQLQESGGGLVQAGGSLRLSCAVSGRTFSGFGTGWFRQAPGKEREFVAAISWDGGRTHYADFVKGRFTISRDNAKNTVYLQMNSLKPEDTAVYYCAAQVARAYDSKWYSGGDYWGQGTQVTVSS
notes: as for B1
B26: FLL74 (VHH)
VHH: QVQLQESGGGLVQAGGSLRLSCRFSGRTFSGFGTGWFRQAPGKEREFVAAISWAGGRTHYEDSVKGRFTISRDNAKNTVYLQMNSLKPEDTAVYYCAVQVSRAYDGIWYSGGDYWGQGTQVTVSS
notes: as for B1
B27: FLL38 (VHH)
VHH: QVQLQESGGGLVQAGGSLRLSCAVSGRTFSGFGTGWFRQAPGKEREFVAAVSWSGGTTEIADSVKGRFTISRDNAKNTVYLQMSSLKPGDTAVYYCAGQVARAYDSRWYSRGDYWGQGTQVTVSS
notes: as for B1
B28: FLL168 (VHH)
VHH: QVQLQESGGGSVQAGGSLRLSCAFSGRTFSGFGTGWFRQAPEKEREFVAAISWDGGRTHYADSVKGRFTISRDNAKNTVYLQMDSLKPEDTAIYYCAAQVSRAYDGRWYSAVDYWGRGTQVTVSS
notes: as for B1
B29: FLL170 (VHH)
VHH: QVQLQESGGGLVQAGGSLRLSCAVSGRTFSGFGTGWFRQAPGKEREFVAAISWSGGTTHYADSVKGRFTISRDNAKNTVYLQMNSLKPEDTAVYYCAGQVARAYDSSWYSRGDYWGQGTQVTVSS
notes: as for B1

What was measured:
human FLT3 protein [1] = target: T1, human FLT3 protein (human, UniProt P36888 27-541, limits assumed); test: colorimetric ELISA, signal over control wells lacking FLT3
T1 construct: protein coated in the screening ELISA; also called ELISA FLT3
Description: (§1) Llamas were immunized with purified FLT3 protein expressed in Expi293 cells. A phage display library for expression of heavy variable antibody domains was constructed from circulating B cells isolated from the immunized llamas (See van der Linden, de Geus, Stok, Bos, van Wassenaar, Verrips, and Frenken. 2000. J Immunol Methods 240:185-195). Phage clones were screened for binding to FLT3 by expressing llama anti-FLT3 proteins in E. coli, preparing periplasmic extracts, and performing colorimetric ELISAs.

human FLT3 protein [2] = target: T1, human FLT3 protein; test: colorimetric ELISA, periplasmic extract
Description: as §1

Binder | FLT3/control (human FLT3 protein [1]) | ELISA FLT3 (absorbance) (human FLT3 protein [2])
B1 | 4 ratio | 1.3 absorbance
B2 | 5 ratio | 0.8 absorbance
B3 | 9 ratio | 1.9 absorbance
B4 | 14 ratio | 3.3 absorbance
B5 | 37 ratio | 3.7 absorbance
B6 | 25 ratio | 4 absorbance
B7 | 12 ratio | 2.7 absorbance
B8 | 9 ratio | 1.4 absorbance
B9 | 17 ratio | 2.1 absorbance
B10 | 5 ratio | 0.5 absorbance
B11 | 4 ratio | 0.6 absorbance
B12 | 15 ratio | 1.9 absorbance
B13 | 37 ratio | 3.7 absorbance
B14 | 17 ratio | 3.9 absorbance
B15 | 19 ratio | 4 absorbance
B16 | 21 ratio | 4 absorbance
B17 | 8 ratio | 4 absorbance
B18 | 51 ratio | 4 absorbance
B19 | 35 ratio | 3.8 absorbance
B20 | 47 ratio | 4 absorbance
B21 | 34 ratio | 3.6 absorbance
B22 | 5 ratio | 4 absorbance
B23 | 13 ratio | 3.7 absorbance
B24 | 16 ratio | 3.8 absorbance
B25 | 15 ratio | 4 absorbance
B26 | 6 ratio | 3.9 absorbance
B27 | 45 ratio | 4 absorbance
B28 | 28 ratio | 4 absorbance
B29 | 38 ratio | 4 absorbance
